Experimental data as given in patent US20230039401A1, “COMPOSITIONS AND METHODS FOR TREATING NRP2-ASSOCIATED DISEASES” (aTyr Pharma, Inc., priority 2018, published 2023).

How the values were obtained:
[1] = tested on: LPS-induced leukocyte infiltration into the mouse lung; assay: Murine model of LPS-induced pulmonary inflammation; type: in vivo; details: single IV 3 mg/kg the day before LPS 10 μg/mouse; lavage 24 hours later
From the text: This study was designed to investigate the in vivo potential of test compounds in a murine model of neutrophil accumulation in the lung induced by airway instillation of lipopolysaccharide (LPS).
Treatment Regimen. Sixty-four (64) C57BL/6 mice (Jackson Laboratory, Bar Harbor, Me., USA, 8 week old females) were assigned to study groups of 8 mice, and housed in specific pathogen-free conditions with sterile food and water.
In brief, animals received a single intravenous injection of the vehicle of Fc-HRS(2-60) (20 mM Histidine/125 mM NaCl/10 mM Methionine/3% Sucrose/0.02% PS20, pH 6.9), Fc-HRS(2-60) (1, 3, or 10 mg/kg), or HRS(2-60)-COMP (3 mg/kg). The following day, mice were anesthetized by isoflurane inhalation and, using a gavage needle and attached syringe, 50 μL of LPS (Sigma L3024, E. coli 0111-B4, 10 μg/mouse) formulated in PBS, or PBS alone, was delivered to the back of the oral soft palate for inhalation. […]
Flow Cytometry Analysis. […] NRP2 was detected by addition of 25 μL of rabbit anti-mouse NRP2 (Cell Signaling Technology) at 10 μg/mL in FWB for 1 h in the dark on ice, and cells were then washed (data not shown). […]
Using GraphPad Prism 7, results were analyzed by one-way ANOVA followed by Dunn's multiple comparison test using the LPS/Vehicle group as the comparator. […]

[2] = tested on: murine bone marrow derived macrophages; assay: Efferocytosis in bone marrow derived macrophages (pHrodo-loaded apoptotic jurkat cells); type: cell-based, mouse; details: 100 nM for 5 days during monocyte differentiation
From the text: This study was designed to investigate the in vivo potential of test compounds to modulate efferocytosis in murine bone marrow derived macrophages. Efferocytosis refers to the process by which dying/dead cells (e.g. apoptotic or necrotic cells) are removed by phagocytic cells. During efferocytosis, the cell membrane of phagocytic cells engulfs the apoptotic cell, forming a large fluid-filled vesicle containing the dead cell. Efferocytosis can be performed not only by ‘professional’ phagocytic cells such as macrophages or dendritic cells, but also by many other cell types including epithelial cells, fibroblasts and other cells. To distinguish them from living cells, apoptotic cells carry specific ‘eat me’ signals, such as the presence of phosphatidyl serine (resulting from phospholipid flip-flop) or calreticulin on the outer leaflet of the cell membrane. […] Like phagocytosis, acidification of the endosome, is a central aspect of endosome maturation, which can be readily monitored through the use of a pH sensitive probe, as described herein.
Methods and protocol. […] Confocal images were captured in Zeiss 710 Confocal Laser Scanning Microscope equipped with 4 lasers and images were captured and analyzed using Zeiss Zen 2010 software. For quantification, the intensity of red fluorescence in each field were measured and the arithmetic mean was calculated and represented graphically.

B1: HRS(2-60)-COMP: pentamer of HRS(2-60): HARS aa 2-60 fused to COMP pentameric domain (aa 28-73); made His tagged; SEQ ID NO:175 without tags (protein)
chain: ERAALEELVKLQGERVRGLKQQKASAELIEEEVAKLLKLKAQLGPDESKQKFVLKTPKGGGGSGGGGSSDLGPQMLRELQETNAALQDVRELLRQQVREITFLKNTVMECDAC
modifications: His tag; Made in Lab - HRS-COMP Fusion Protein
B1 was tested, and the “number of airway neutrophils accumulating in response to LPS” value [1] was “significantly reduced” and the “efferocytosis (spectral shift of pH sensitive dye)” value [2] was “profound inhibition of efferocytosis”.
